What all share (experiment): GST pulldown, [35S]Met-labelled in vitro translated protein
Assay [1] deals with T1, GST-HDA19 fusion protein (recombinant Arabidopsis thaliana HDA19 fused to glutathione S-transferase) (Arabidopsis thaliana, UniProt O22446 1-501).
T1 construct: Expressed in E. coli BL21-CodonPlus (DE3)-RP from pGEX-6P-2 (SalI/NotI) and purified under non-denaturing conditions; also called recombinant HDA19; not shown: glutathione S-transferase (GST) encoded by vector pGEX-6P-2 (Amersham Pharmacia)
T1 sequence (looked up): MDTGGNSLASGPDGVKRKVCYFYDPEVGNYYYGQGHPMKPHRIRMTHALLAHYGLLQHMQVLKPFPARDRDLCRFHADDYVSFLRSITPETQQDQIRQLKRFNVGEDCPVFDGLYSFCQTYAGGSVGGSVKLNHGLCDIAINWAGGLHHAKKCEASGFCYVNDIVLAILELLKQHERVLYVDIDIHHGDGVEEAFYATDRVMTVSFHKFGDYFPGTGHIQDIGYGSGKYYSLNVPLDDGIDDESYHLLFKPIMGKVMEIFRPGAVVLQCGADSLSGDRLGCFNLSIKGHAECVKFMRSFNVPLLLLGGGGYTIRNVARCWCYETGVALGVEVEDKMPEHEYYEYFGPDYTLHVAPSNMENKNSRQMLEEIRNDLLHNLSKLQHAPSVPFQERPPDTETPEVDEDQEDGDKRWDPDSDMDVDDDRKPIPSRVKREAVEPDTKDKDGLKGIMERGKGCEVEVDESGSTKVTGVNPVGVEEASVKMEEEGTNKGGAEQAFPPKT

For assay [2], the target named is T2, GST-Gcn5 fusion protein (recombinant Arabidopsis HAT Gcn5 fused to glutathione S-transferase) (Arabidopsis, UniProt Q9AR19 1-568).
T2 construct: Expressed in E. coli from pGEX-6P-2 (SalI/NotI); also called GCN5 (HAT); histone acetyltransferase (HAT); not shown: glutathione S-transferase (GST) encoded by vector pGEX-6P-2 (Amersham Pharmacia)
T2 sequence (looked up): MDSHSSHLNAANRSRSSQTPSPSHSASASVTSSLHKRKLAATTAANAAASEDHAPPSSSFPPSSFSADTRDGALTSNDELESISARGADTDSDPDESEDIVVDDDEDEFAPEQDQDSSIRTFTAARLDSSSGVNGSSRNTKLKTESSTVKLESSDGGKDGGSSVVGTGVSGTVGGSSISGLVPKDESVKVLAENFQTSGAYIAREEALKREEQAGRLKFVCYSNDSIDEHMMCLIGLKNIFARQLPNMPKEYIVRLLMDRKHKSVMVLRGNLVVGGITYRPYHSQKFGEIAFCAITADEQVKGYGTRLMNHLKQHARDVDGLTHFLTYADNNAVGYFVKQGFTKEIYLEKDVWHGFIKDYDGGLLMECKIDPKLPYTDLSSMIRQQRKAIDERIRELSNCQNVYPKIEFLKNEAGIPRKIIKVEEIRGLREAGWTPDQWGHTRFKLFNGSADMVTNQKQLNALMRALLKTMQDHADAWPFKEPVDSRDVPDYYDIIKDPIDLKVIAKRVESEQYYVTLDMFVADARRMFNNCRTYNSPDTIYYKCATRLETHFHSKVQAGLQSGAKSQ

Assay [3] deals with T3, GST alone (negative control) (UniProt P08515 1-218 = GST).
T3 construct: Negative control in the GST pulldown assays (6 µg per reaction)
T3 sequence (P08515 whole entry): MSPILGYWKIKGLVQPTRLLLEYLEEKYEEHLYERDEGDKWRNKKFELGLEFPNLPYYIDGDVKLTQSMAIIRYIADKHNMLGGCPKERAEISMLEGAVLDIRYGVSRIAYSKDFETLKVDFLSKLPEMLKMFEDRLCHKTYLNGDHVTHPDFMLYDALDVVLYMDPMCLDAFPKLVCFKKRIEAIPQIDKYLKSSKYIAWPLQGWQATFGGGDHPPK

B1: ΔBnSCL1^1-145, in vitro translated (other, not shown: small tags and cut ends)
chain: MDEHAMRSMDWDSIMKELEVDDDSAPYQLQPSSFNLPVFPDIDSSDVYPGPNQITGYGFNSLDSVDNGGFDYIEDLIRVVDCIESDELHLAHVVLSQLNQRLQTSAGRPLQRAAFYFKEALGSLLTGTNRNQLFSWSDIVQKIRA
modifications: labeled with [^35S]methionine
notes: C-terminal truncation lacking the VHIID motif
In the case of B1, the binding result in assay [1] is reported as “no binding”.

B2: ΔbnKCP1^1-160 (residues 1-160), in vitro translated (other)
chain: MAGGGPTFSIELSAYGSDLPTDKASGDIPNEEGSGLSRVGSGIWSGRTVDYSSESSSSIGTPGDSEEEDEESEEDNDEEELGLASLRSLEDSLPSKGLSSHYKGKSKSFGNLGEIGSVKEVPKQENPLNKKRRLQIYNKLARKSFYSWQNPKSMPLLPVH
modifications: labeled with [^35S]methionine
notes: C-terminal truncation lacking the KID domain, translated in vitro from pET-28b; Vector-encoded residues are not described
Regarding B2, the binding result in assay [2] and in assay [1] was “no binding” each time.

B3: ΔbnKCP1^1-80 (residues 1-80), in vitro translated (other)
chain: MAGGGPTFSIELSAYGSDLPTDKASGDIPNEEGSGLSRVGSGIWSGRTVDYSSESSSSIGTPGDSEEEDEESEEDNDEEE
modifications: labeled with [^35S]methionine
notes: as for B2
Turning to B3, the binding result in assay [2] and in assay [1] was “no binding” each time.

B4: bnKCP1 (B. napus KID-containing protein 1), full-length, in vitro translated (other)
chain: MAGGGPTFSIELSAYGSDLPTDKASGDIPNEEGSGLSRVGSGIWSGRTVDYSSESSSSIGTPGDSEEEDEESEEDNDEEELGLASLRSLEDSLPSKGLSSHYKGKSKSFGNLGEIGSVKEVPKQENPLNKKRRLQIYNKLARKSFYSWQNPKSMPLLPVHEDNDDEEGDDGDLSDEERGGDVLARRPSFKNRALKSMSCFALSDLQEEEEEEEDE
modifications: labeled with [^35S]methionine
notes: Produced by TNT-Quick coupled in vitro transcription/translation from pET-28b (HindIII/XhoI); also called wild type bnKCP1; pET-28b bnKCP1
On to B4, for which, in assay [3], the binding result is on record as “no binding”.

B5: BnSCL1 (Brassica napus SCARECROW-like protein 1), full-length, in vitro translated (other, not shown: small tags and cut ends)
chain: MDEHAMRSMDWDSIMKELEVDDDSAPYQLQPSSFNLPVFPDIDSSDVYPGPNQITGYGFNSLDSVDNGGFDYIEDLIRVVDCIESDELHLAHVVLSQLNQRLQTSAGRPLQRAAFYFKEALGSLLTGTNRNQLFSWSDIVQKIRAIKEFSGISPIPLFSHFTANQAILDSLSSQSSSPFVHVVDFEIGFGGQYASLMREIAEKSANGGFLRVTAVVAEDCAVETRLVKENLTQFAAEMKIRFQIEFVLMKTFEILSFKAIRFVDGERTVVLISPAIFRRVIGIAEFVNNLGRVSPNVVVFVDSEGCTETAGSGSFRREFVSAFEFYTMVLESLDAAAPPGDLVKKIVETFLLRPKISAAVETAANRRSAGQMTWREMLCAAGMRPVQLSQFADFQAECLLEKAQVRGFHVAKRQGELVLCWHGRALVATSAWRF
modifications: labeled with [^35S]methionine
notes: also called wild type BnSCL1
For the molecule B5, the binding result in assay [3] is “no binding”.

Values taken from patent publication US20050278809A1 (HER MAJESTY THE QUEEN IN RIGHT OF CANADA AS REPRESENTED BY …, published 2005).
